The supplement of paper PMC9170038

Test system: MS2 coat protein
Test: apparent KD of MS2 coat protein; designed switch direction (-1 OFF switch, 1 ON switch): -1; higher = weaker reporter binding
Summary of the method: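 The reported apparent KD is a per-design median over clusters, from curve fits of normalised cluster fluorescence. Protein titrations used SNAP-549-labelled MS2 coat protein, doubled from 0.7 or 1.5 nM to 3 µM, in Tris-HCl pH 7.5 buffer with KCl, MgCl2, BSA, DTT, tRNA and Tween-20, with no input, 200 uM small-molecule ligand, or an oligonucleotide input. The RNA switches were transcribed on Illumina chips by stalled E. coli RNA polymerase.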

[1] = input ligand: microRNA oligo, concentration not stated
[2] = Eterna round: R95, input ligand: microRNA oligo, concentration not stated
[3] = Eterna round: R95, input ligand: FMN 200 uM
[4] = Eterna round: R95, input ligand: none

| Sequence | apparent KD of MS2 coat protein (input ligand: FMN 200 uM) [nM] | apparent KD of MS2 coat protein [1] [nM] | apparent KD of MS2 coat protein (input ligand: none) [nM] | apparent KD of MS2 coat protein [2] [nM] | apparent KD of MS2 coat protein [3] [nM] | apparent KD of MS2 coat protein [4] [nM] |
| --- | --- | --- | --- | --- | --- | --- |
| GCUCGUGGGCAAGGAUAUCCUACGCUGUUCUGGUUCGUGUCUGUCACAUGAGGAUCACCCAUGUGGGAGAAGGUGCACCAGGGU [Design 51] (Eterna round: R96, puzzle: Exclusion NG 2) | 10.8 | 9.67 | 14 |  |  |  |
| GCUGCAAGAGGAUAUACAUGAGGAUCACCCAUGUGAAAUUAUAGUGAGGAAAUGAAAAGUAGAAGGCUUGUAGA [Mod of Mat 15 - Jieux - Exclusion 3] (Eterna round: R97, puzzle: Exclusion 3) | 86.6 |  | 38.1 |  |  |  |
| GCUGCACAUGUAGGAUAUCUGCACGAUUAGUGCAGAGAAGGACAUGAGGAUCACCCAUGUAGAUCAGCAGCAAUUAAUUUAAUU [ENG1/6-A1] (Eterna round: R96, puzzle: Exclusion NG 1) | 232 | 241 | 400 |  |  |  |
| GCUGCGCGAGGAUAUGCGGUUCGCGCUGUGGCCCGUGGCGGACAUGAGGAUCACCCAUGUAGAAGGCGUGCGGG [Apr-15 SS2-58] (puzzle: Exclusion 2) |  |  |  | 10.3 |  |  |
| GCUGCGCGAGGAUAUGCGGUUUGUGCUUUGGGCCCUGGCGUACAUGAGGAUCACCCAUGUAGAAGGCGUGUGGG [Apr-15 SS2-51] (puzzle: Exclusion 2) |  |  |  | 32.8 |  |  |
| GCUGGAAAAGGAUAUACAUAACGUGCGUCGGCACGAGAUCUACAUGAGGAUCACCCAUGUAGAAGGUUUCCAGC [EX2 #73] (Eterna round: R97, puzzle: Exclusion 2) | 33.4 |  | 14.3 |  |  |  |
| GCUUCUGGGCAAGGAUAUCCUGCGCUGUUCUGGUUCGUGUCUGUCACAUGAGGAUCACCCAUGUGGGAGAAGGUGCCUGUGGUG [Design 69] (Eterna round: R96, puzzle: Exclusion NG 2) | 18.8 | 11.3 | 19.5 |  |  |  |
| GCUUGAGCAGGAUAUACAAUGAGCUUGAGAAAUCGAGUUCGACAUGAGGAUCACCCAUGUAGAAGGGUUCGAGU [-27.3, -25 kcal, A 31% 1 and 1bis] (Eterna round: R97, puzzle: Exclusion 2) | 38.4 |  | 24.3 |  |  |  |
| GCUUGUGUUGAGGAUAUGCGCCGGCUCGCUGGCGCAGAAGGCGGCACAUGAGGAUCACCCAUGUCAGUUCGCGU [salish99_ex6_r004_010] (Eterna round: R97, puzzle: Exclusion 6) | 428 |  | 38 |  |  |  |
| GCUUUUCUUUUCCUUUCUUACAUGAGGAUCACCCAUGUUUCUUGUCCUGCUCGCGUUGCUCGUCUGUCUGUCUGUUG [salish99_TOv1_r3_080] (puzzle: Sensor v3, turn-off variant 1) |  |  |  | 24.3 | 28.7 | 31.2 |
| GCUUUUUGUGUAGGAUAUCGCGCGCGGCGUGUGUGAGAAGGACAUGAGGAUCACCCAUGUAGCAACGGCGGCGCUGGUGUUGUC [-27, -24 kcal and 18% A] (Eterna round: R96, puzzle: Exclusion NG 1) | 16.7 | 10.7 | 19.5 |  |  |  |
| GGAAGUAGAAACCGAUCCUACAUGAGGAUCACCCAUGUAGCAAGACGUGCACGCGAAGCUCGUCAGACUACCAGAAC [salish99_TOv1_r3_012] (puzzle: Sensor v3, turn-off variant 1) |  |  |  | 383 | 204 | 521 |
| GGAAUGAGAGAGGAUAUGGGAGGGAGGACCGGACCAGAAGGCUCGACAUGAGGAUCACCCAUGUGGAGAUCCUC [AK-MS2ROC-r4-exclusion6-6.11] (Eterna round: R97, puzzle: Exclusion 6) | 236 |  | 1480 |  |  |  |
| GGACACUGAGGAUAUACAAUUCAGGUCCUCCUGUAGAGUAUACAUGAGGAUCACCCAUGUAGAAGGCAGACCAA [Aronberiat] (Eterna round: R97, puzzle: Exclusion 2) | 344 |  | 44.9 |  |  |  |
| GGACAGCGAGGAUAUACGUGUACGUUAUCCUCUAUGGGUCAACAUGAGGAUCACCCAUGUAGAAGGCGCAUAAU [Mabima] (puzzle: Exclusion 2) |  |  |  | 18.7 |  |  |
| GGACGGUAAGUGAGGAUAUGCUCUACCUCGGUAGAGCAGAAGGCACAUGAGGAUCACCCAUGUGAAAACUGUUC [Omei Ex4B B31] (Eterna round: R97, puzzle: Brourd's mod of Exclusion 4) | 21.5 |  | 15 |  |  |  |
| GGAGAGUCAGGAUAUCGAAGGUAGAGAAGAGGAGAGUGGUACGAGAAGGGACAUGAGGAUCACCCAUGUAGGUG [JR_Exclusion4)Sub011] (puzzle: Exclusion 4) |  |  |  | 645 | 457 | 452 |
| GGAGCGAUUCUCUUAGCAGACAUGAGGAUCACCCAUGUAUGCAAGCUCUUAUUUUGCUCGUCUUACCGGGAGUUGCU [Ridizaer] (puzzle: Sensor v3, turn-off variant 1) |  |  |  | 20.7 | 13.6 | 13 |
| GGAGCGAUUCUCUUAGCUGACAUGAGGAUCACCCAUGUAUGCAAGCUCUUAUUUUGCUCGUCUUACCGGGAAUUGCU [Uslainar] (puzzle: Sensor v3, turn-off variant 1) |  |  |  | 18.5 | 14.8 | 13.2 |
| GGAGGACGAGCAGGAUAUUUUCACAUGAGGAUCACCCAUGUGUAUUCAGGGUAAUCUUCCGCCGAAAAGAAGGGUUCGGAAGAA [JL ViennaUCT Socedi mod 3] (Eterna round: R96, puzzle: Exclusion NG 2) | 47.1 | 27.4 | 25.9 |  |  |  |
| GGAUAAAACUGAGGAUAUACGCACCACUAACGAGUAGAAGGCAGACAUGAGGAUCACCCAUGUGAGUUCUCAAUAAGAAACACG [Prohibition 66 - Jieux - Exclusion NG 1] (Eterna round: R96, puzzle: Exclusion NG 1) | 192 | 88.9 | 85.1 |  |  |  |
| GGAUCACAUGUCAGGAUAUGCAGGUCCUUGGAUCUGCAGAAGGGACAUGAGGAUCACCCAUGUCAUGAAGAUCC [Mat - Exclusion 4 - Eli Mod - D51] (Eterna round: R97, puzzle: Brourd's mod of Exclusion 4) | 945 |  | 145 |  |  |  |
